Tests used:
[1] = target: T1, SIRV2_Gp1 (Sulfolobus islandicus rod-shaped virus …, UniProt Q8UYE8 1-83); assay: EMSA; >1 uM protein needed; 6-FAM EMSA: 50 mM Tris pH 7.5, 5 mM EDTA, 1 mM DTT, 100 ug/mL BSA, 100 nM probe, 20 min room temperature; 32P EMSA: 20 mM Tris pH 8.0, 0.4 mM EDTA, 1 mM MgCl2; settings: protein: recombinant, tags: C-terminal His-tag (pEXP5-CT/TOPO)
T1 sequence: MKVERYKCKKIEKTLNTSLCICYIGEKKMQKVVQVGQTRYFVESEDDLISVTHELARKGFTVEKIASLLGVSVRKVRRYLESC

[2] = target: T1, SIRV2_Gp1; assay: EMSA; >1 uM protein needed; higher affinity than single-stranded probes; 6-FAM EMSA: 50 mM Tris pH 7.5, 5 mM EDTA, 1 mM DTT, 100 ug/mL BSA, 100 nM probe, 20 min room temperature; 32P EMSA: 20 mM Tris pH 8.0, 0.4 mM EDTA, 1 mM MgCl2; settings: protein: recombinant; tags: C-terminal His-tag (pEXP5-CT/TOPO); blunt
[3] = target: T1, SIRV2_Gp1; assay: EMSA; low affinity, >1 uM protein needed; smearing, unbound probe remains; 6-FAM EMSA: 50 mM Tris pH 7.5, 5 mM EDTA, 1 mM DTT, 100 ug/mL BSA, 100 nM probe, 20 min room temperature; 32P EMSA: 20 mM Tris pH 8.0, 0.4 mM EDTA, 1 mM MgCl2; settings: protein: recombinant; tags: C-terminal His-tag (pEXP5-CT/TOPO); label: 5'-6-FAM; single strand

B1: Holliday junction DNA (oligos 7-10) (structured_DNA)
DNA 1: GCGTTACAATGGAAACTATTCTTGGCAGTTGCATCCAACG
DNA 2: CGTTGGATGCAACTGCCAAGAATAGTGTCAGTTCCAGACG
DNA 3: CGTCTGGAACTGACACTATTCTTGGCGAATGGTCGTAAGC
DNA 4: GCTTACGACCATTCGCCAAGAATAGTTTCCATTGTAACGC
binding result ([1]; four-way junction of 4 strands): binds

B2: random 30-bp dsDNA (oligos 3-4) (dsDNA)
DNA 1: TGAGTTTTTTTCATTTTTTGCGTAAATTTC
DNA 2: GAAATTTACGCAAAAAATGAAAAAAACTCA
binding result [2]: binds

B3: hairpin DNA (oligo 5) (structured_DNA)
DNA: TGAGTTTTTTTCATTTTTTGCGTAAATTTCGAAATTTACGCAAAAAATGAAAAAAACTCA
binding result ([1]; label: 5'-6-FAM, hairpin): binds

B4: random 30-nt ssDNA (oligo 3) (ssDNA)
DNA: TGAGTTTTTTTCATTTTTTGCGTAAATTTC
binding result [3]: binds
